# Reference: US9164103B2, “Monitoring and inhibiting human immunodeficiency virus infection by modulating HMGB1 dependent triggering of HIV-1 replication and persistence” (priority 2008, dated 2015)
# B1: rh-HMGB1: recombinant human HMGB1 protein (R&D Systems), added exogenously (protein, UniProt P09429 1-215, looked up)
# High mobility group protein B1: MGKGDPKKPRGKMSSYAFFVQTCREEHKKKHPDASVNFSEFSKKCSERWKTMSAKEKGKFEDMAKADKARYEREMKTYIPPKGETKKKFKDPNAPKRPPSAFFLFCSEYRPKIKGEHPGLSIGDVAKKLGEMWNNTAADDKQPYEKKAAKLKEKYEKDIAAYRAKGKPDAAKKGVVKAEKSKKKKEEEEDEEDEEDEEEEEDEEDEDEEEDDDDE
# How the values were obtained:
# iDC = experiment: Direct phenotypic maturation of iDCs (flow cytometry of maturation markers); type: cell-based, human
# Source text: Co-staining with HLA-DR and CD86 specific antibodies allowed the identification of mature DCs (CD86^brightHLA-DR^bright). Data from a representative experiment out of three independent experiments are shown. […] The proportion of mDCs induced by LPS (DC0) (78.1% CD86^brightHLA-DR^bright) is shown as a positive control. […] These experiments have been performed on primary cells from a number of donors, and representative data from three of them are shown. When indicated, statistical analyses were made with the non parametric Mann-Whitney test. * p<0.05, ** p=0.02.
# The maturation status of DCs was determined by flow cytometry with CD86 and HLA-DR—specific antibodies. […] (b) iDC (10^6 cells/ml) were cultured for 48 h with increasing concentrations (1-10 μg/ml) of rh-HMGB1. Cells were then stained with anti-CD86, -HLA-DR, -CD80, -CD83, DC-LAMP and -CD40 antibodies and analyzed by flow cytometry.
# iDCs = experiment: Cytokine and chemokine production by DCs (MAP/Luminex); type: cell-based, human; details: iDCs 48 h, 1 or 10 μg/ml
# Protocol: FIG. 3 (a)-(e). aNK-dependent maturation of HIV-1-infected iDCs is mediated by HMGB1 and involves RAGE. (a) Left panel: iDCs were cultured for 24 h either alone or with aNK cells, in the presence of blocking anti-HMGB1 antibodies (10 μg/ml) or glycyrrhizin (10 μg/ml). The maturation status of DCs was determined by flow cytometry with CD86 and HLA-DR—specific antibodies. Right panel: same experiment, but performed with HIV-1 infected iDCs. Data represent mean±sd of at least three independent experiments, and statistical comparisons were made with the non parametric Mann-Whitney test. * p<0.05. (b) iDC (10^6 cells/ml) were cultured for 48 h with increasing concentrations (1-10 μg/ml) of rh-HMGB1. Cells were then stained with anti-CD86, -HLA-DR, -CD80, -CD83, DC-LAMP and -CD40 antibodies and analyzed by flow cytometry. (c) Influence of rh-HMGB1 on cytokine and chemokine production (determined by MAP) by DCs. iDCs (10^6 cells/ml) were incubated for 48 h in medium or in presence of rh-HMGB1 (1 or 10 μg/ml). As a positive control, iDCs were stimulated with LPS (DC0). […] (e) iDC, DC0, uninfected or HIV-1-infected iDC cocultured for 24 h with aNK cells, were incubated with rh-HMGB1 (1 μg/ml) and subsequently stained with anti-RAGE antibodies and analyzed by flow cytometry. […]
# RAGE = experiment: Surface expression of RAGE on DCs (flow cytometry); type: cell-based, human; details: uninfected iDCs, 1 μg/ml
# Protocol: (d) Flow cytometry detection of surface expression of RAGE by iDCs, DC0, or iDCs incubated with rh-HMGB1 (1 μg/ml). iDCs were either non infected or infected with HIV-1 (1 ng/ml p24 for 3 h). (e) iDC, DC0, uninfected or HIV-1-infected iDC cocultured for 24 h with aNK cells, were incubated with rh-HMGB1 (1 μg/ml) and subsequently stained with anti-RAGE antibodies and analyzed by flow cytometry. NK cells were excluded from the analysis through the co-staining with CD3- and CD56-specific antibodies (CD3^−CD56^+).
# The possible involvement of RAGE during NK-DC cross-talk was evaluated with the same approach, comparing RAGE expression on DCs cocultured with aNK cells and DC cultured alone.
# Phenotypic analysis of DCs and characterization of their maturation stage was performed by flow cytometry. DCs were stained for 20 min at 4° C. with antibodies specific for CD80, CD83, CD86, HLA-DR, CD40, DC-LAMP or DC-SIGN (all antibodies from BD Biosciences, San Jose, Calif.) diluted in 100 μl of PBS/10% FCS/0.1% NaN3. In some experiments, antibody specific for HMGB1-receptor, RAGE (Abcam), was used to stain DCs. After two washings, cells were fixed in 1% PFA, immediately acquired on a FACScalibur (Becton Dickinson) and analyzed with Flow Jo software.
# R5-HIV-1Ba-L = experiment: HIV-1 replication in infected iDCs (p24 ELISA in culture supernatant); type: cell-based; details: 3 days, 1 μg/ml
# Protocol: FIGS. 6 (a), (b) and (c). Exogenous rh-HMGB1 triggers HIV-1 and HIV-2 replication in iDC. (a) HIV-1-infected iDC were cultured alone or in the presence of aNK cells for 3 days. Rh-HMGB1 (1 μg/ml) was added in some cultures. HIV replication was measured by p24 quantification in culture supernatant (b) HIV1-infected iDC were cultured alone or in the presence of aNK cells for 3 days. Blocking anti-HMGB1 antibodies (10 μg/ml) or glycyrrhizin (10 μg/ml) were added at culture initiation. HIV replication was measured by p24 quantification in culture supernatant. The mean±sd of three independent experiments is shown. Statistical comparisons were made with the non parametric Mann-Whitney test. * p<0.05; (c) HIV-2-infected iDC were cultured alone or in the presence of aNK cells for 3 days. Rh-HMGB1 (1 μg/ml) was added in some cultures. HIV replication was measured by p24 quantification in culture supernatant.
# Exogenous HMGB1 was recently reported to increase HIV-1 replication in infected monocytic cell lines38, and to induce in vitro the reactivation of HIV-1 in PBMCs from HIV-1-infected patients under antiretroviral therapy39. Therefore, the question of the role of HMGB1 in the NK-dependent triggering of HIV replication in DCs was addressed. […] To investigate the influence of HMGB1 in the triggering of HIV-1 replication in infected-iDC-aNK cocultures, HMGB1-specific neutralizing antibodies or glycyrrhizin were added to these cocultures and p24 production was measured in the supernatant. […] They also indicate that aNK cell-dependent stimulation of HIV-1 replication in iDCs is mediated by HMGB1.
# Virus stock preparation was prepared by amplification of R5-HIV-1Ba-L on MDM from healthy donors. Viral stock was then clarified by centrifugation prior to determination of HIV1 p24 concentration. iDCs were plated in 96-well culture plates at 200,000 cells/well and incubated for 3 hours at 37° C. in a 5% CO2 atmosphere with R5-HIV-1BAL at various concentrations (0.001 to 10 ng p24/ml). Cells were harvested, washed four times with media containing 10% FCS and, when indicated, rNK or aNK cells were added at a NK:DC ratio of 1:5, unless otherwise indicated. NK-DC cocultures lasted 24 h before analysis of the maturation stage of DCs and/or quantification of viral production. In some experiments (FIG. 6), HIV-1 infected iDCs were incubated alone or with aNK cells for 3 days, in the presence of rh-HMGB1 (1 μg/ml) (R&DSystems), and in some cultures in the presence of rabbit antiHMGB1 Abs (10 μg/ml) (Abcam, Cambridge, UK) or Glycyrrhizin (10 μg/ml).
# The concentration of HIV-1 in the supernatant of infected cell cultures was determined by measuring the amount of p24 protein by ELISA (Ingen, Belgium). DNA from cells was extracted using the GIAamp DNA Blood Mini Kit (Qiagen, Basel, Switzerland) and quantified HIV-1 proviral load by RT-PCR as described previously54. The frequency of HIV-1-infected cells was determined by flow cytometry to detect intracellular p24 molecule. Cells were surface stained with antibodies specific for CD40 (BD Biosciences, San Jose, Calif.) to target DC and intracellular stained with p24-specific antibodies (Coulter). Stained cells were fixed in 1% PFA, immediately acquired on a FACScalibur (Becton Dickinson) and analyzed with FlowJo software. In some experiments infected DCs were imaged, after immunofluorescence, by laser scanning confocal microscopy.
# HIV-2 = HIV-2 replication in infected iDCs (p24 ELISA in culture supernatant); type: cell-based; details: HIV-2-infected iDC, day 3
# Protocol: FIGS. 6 (a), (b) and (c). Exogenous rh-HMGB1 triggers HIV-1 and HIV-2 replication in iDC. (a) HIV-1-infected iDC were cultured alone or in the presence of aNK cells for 3 days. Rh-HMGB1 (1 μg/ml) was added in some cultures. HIV replication was measured by p24 quantification in culture supernatant (b) HIV1-infected iDC were cultured alone or in the presence of aNK cells for 3 days. Blocking anti-HMGB1 antibodies (10 μg/ml) or glycyrrhizin (10 μg/ml) were added at culture initiation. HIV replication was measured by p24 quantification in culture supernatant. The mean±sd of three independent experiments is shown. Statistical comparisons were made with the non parametric Mann-Whitney test. * p<0.05; (c) HIV-2-infected iDC were cultured alone or in the presence of aNK cells for 3 days. Rh-HMGB1 (1 μg/ml) was added in some cultures. HIV replication was measured by p24 quantification in culture supernatant. […]
# 2—NK-DC cocultures: cells were harvested, washed three times with RPMI containing 10% FCS and, when indicated, aNK cells were added at a NK:DC ratio of 1:5. […] NK-DC cocultures lasted 3 to 7 days before quantification of viral production in culture supernatants.
# 3—Quantification of HIV-2 viral production: the concentration of HIV-2 particles in the supernatants was determined with the p24 ELISA kit (Ingen, Belgium).
molecule,measurement,setting,value
B1,percentage of CD86bright HLA-DRbright DCs,"iDC; 10 μg/ml, 48 h of culture, medium alone 65%",71%
same,phenotypic maturation of iDC,"iDC; 1 to 10 μg/ml, 24 h, similar at 48 h",did not induce phenotypic maturation of iDC
same,"expression of CD80, CD83 and DC-lamp",iDC; rh-HMGB1-treated DCs compared with mDC (DC0),not fully mature
same,"release of the chemokines MCP1, MIP-1α, MIP-1β and IL-8",iDCs,increased release
same,RAGE expression on iDCs,RAGE,down-regulation of RAGE
same,p24 production,R5-HIV-1Ba-L; HIV-1-infected iDC cocultured with aNK cells,significant stimulatory effect
same,production of p24 in culture supernatants,R5-HIV-1Ba-L; HIV-1-infected iDC cultured alone,enhancing dramatically the production of p24
same,HIV-2 viral replication (p24),HIV-2,slight increase in viral replication
